Laboratory results taken from article PMC6434538.
Where two headings read alike, the source gives them in different places.

T1: RIG-I wild type (UniProt O95786 1-925)
T1 sequence: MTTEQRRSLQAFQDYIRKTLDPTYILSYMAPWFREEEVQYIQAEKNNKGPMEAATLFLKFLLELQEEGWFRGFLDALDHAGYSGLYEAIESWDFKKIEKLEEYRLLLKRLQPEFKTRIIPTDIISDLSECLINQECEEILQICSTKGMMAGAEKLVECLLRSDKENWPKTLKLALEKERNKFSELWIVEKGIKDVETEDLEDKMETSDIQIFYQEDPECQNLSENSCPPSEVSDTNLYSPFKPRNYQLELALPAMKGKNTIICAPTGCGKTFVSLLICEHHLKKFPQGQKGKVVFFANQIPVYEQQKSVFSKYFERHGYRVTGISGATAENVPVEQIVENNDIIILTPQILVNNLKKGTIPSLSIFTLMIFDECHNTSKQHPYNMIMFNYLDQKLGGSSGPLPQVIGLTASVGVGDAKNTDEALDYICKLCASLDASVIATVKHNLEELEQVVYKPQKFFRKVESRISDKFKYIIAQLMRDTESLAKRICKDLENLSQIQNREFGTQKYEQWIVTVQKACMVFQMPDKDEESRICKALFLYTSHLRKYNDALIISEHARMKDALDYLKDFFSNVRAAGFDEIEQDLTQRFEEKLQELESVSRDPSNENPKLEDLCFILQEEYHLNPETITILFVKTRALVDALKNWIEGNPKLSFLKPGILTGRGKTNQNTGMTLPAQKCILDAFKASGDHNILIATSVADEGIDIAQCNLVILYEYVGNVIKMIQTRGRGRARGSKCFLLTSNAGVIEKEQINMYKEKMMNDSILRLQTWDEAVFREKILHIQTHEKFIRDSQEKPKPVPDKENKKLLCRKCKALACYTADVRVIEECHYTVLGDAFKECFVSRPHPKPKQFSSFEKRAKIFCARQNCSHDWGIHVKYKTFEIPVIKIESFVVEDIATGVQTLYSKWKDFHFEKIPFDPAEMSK

B1: 3'ovg dsRNA (dsRNA)
RNA 1: ACGUCCUGAUAGUUAGUAUCCAUCG
RNA 2: CGAUGGAUACUAACUAUCAGGACGUAU
modifications: 5'OH
B2: 5'OH dsRNA 27 bp (dsRNA)
RNA 1: AUACGUCCUGAUAGUUAGUAUCCAUCG
RNA 2: CGAUGGAUACUAACUAUCAGGACGUAU
modifications: 5'OH
B3: 5'ppp dsRNA 27 bp (dsRNA)
RNA 1: AUACGUCCUGAUAGUUAGUAUCCAUCG
RNA 2: CGAUGGAUACUAACUAUCAGGACGUAU
modifications: 5'-triphosphate on strand 1

Assays:
RIG-I wild type [1] = target: T1, RIG-I wild type; assay: fluorescence intensity titration
RIG-I wild type [2] = target: T1, RIG-I wild type; assay: fluorescence intensity titration; remark: listed apart in the source
RIG-I wild type [3] = target: T1, RIG-I wild type; assay: ATPase titration or fluorescence titration

Binder | binding signal (RIG-I wild type [1]) | binding signal (RIG-I wild type [2]) | Kd (RIG-I wild type [3]) [nM]
B1 | 50 fold higher Kd than 5'ppp dsRNA | 7 fold higher Kd than 5'ppp dsRNA | –
B2 | – | 1.5 fold higher Kd than 5'ppp dsRNA | –
B3 | – | – | 2.5
